One test addresses HLA-B*27:05. Kind of test: IEDB peptide-MHC binding, purified MHC/direct/fluorescence; filed as Kd, often an IC50 or EC50 that approximates it; ≥ and ≤ were set here for values at or beyond the usual limits of such assays.
For another test, the target named is HLA-B*44:02. The description is as above.
Another test has as its target HLA-A*69:01. The test is described as above.
The next test addresses HLA-A*03:01. The description is as above.
The target of a further test is HLA-B*15:01. The test is described as above.
In another test the target is HLA-A*02:01. The description is as above.
The target in a further test is HLA-B*39:01. The description is as above.
Test [1] concerns the target HLA-B*58:01. The description is as above.
Test [2] addresses HLA-A*01:01. The description is as above.
For test [3], the target named is HLA-A*26:01. The description is as above. Conditions: source organism: Brucella abortus.
The target of test [4] is HLA-A*11:01. The description is as above.
Another test has as its target HLA-A*31:01. Described as above.
In the next test the target is HLA-B*07:02. The description is as above.
Another test deals with HLA-B*08:01. The test is described as above.
For a further test, the target named is HLA-B*40:01. The description is as above.
In another test the target is HLA-A*29:02. Described as above.
Test [5] concerns the target HLA-B*51:01. Described as above.
For test [6], the target named is HLA-B*58:01. In words: IEDB peptide-MHC binding, purified MHC/competitive/radioactivity; filed as Kd, often an IC50 or EC50 that approximates it; ≥ and ≤ were set here for values at or beyond the usual limits of such assays.
In test [7] the target is HLA-B*57:01. The test is described as above.
Test [8] has as its target HLA-A*01:01. The description is as above. Particulars: source organism: Dengue virus 3 Sri Lanka/1266/2000.
A further test concerns the target HLA-A*32:01. The test is described as above. Particulars: source organism: Dengue virus 1 Brazil/97-11/1997.
Another test addresses HLA-B*53:01. The description is as above.
The next test has as its target HLA-B*46:01. In words: IEDB peptide-MHC binding, purified MHC/direct/fluorescence; filed as Kd, often an IC50 or EC50 that approximates it; ≥ and ≤ were set here for values at or beyond the usual limits of such assays.
The target in a further test is HLA-B*48:01. Described as above.
The target in test [9] is HLA-B*57:01. The description is as above.
The next test addresses HLA-A*68:02. The test is described as above. Conditions: source organism: Orthohantavirus andesense.
The target of the next test is HLA-A*02:12. Described as above. Particulars: source organism: Orthohantavirus andesense.
Another test addresses HLA-B*18:01. The description is as above.
For a further test, the target named is HLA-B*27:03. Kind of test: IEDB peptide-MHC binding, purified MHC/competitive/fluorescence; filed as Kd, often an IC50 or EC50 that approximates it; ≥ and ≤ were set here for values at or beyond the usual limits of such assays. Conditions: source organism: Orthohantavirus andesense.
Test [10] deals with HLA-A*26:01. The description is as above. Particulars: source organism: Orthohantavirus andesense.
For another test, the target named is HLA-B*15:17. The description is as above. Conditions: source organism: Orthohantavirus andesense.
The target in test [11] is HLA-B*51:01. The test is described as above. Conditions: source organism: Orthohantavirus andesense.
Test [12] addresses HLA-A*11:01. Kind of test: IEDB peptide-MHC binding, purified MHC/competitive/radioactivity; filed as Kd, often an IC50 or EC50 that approximates it; ≥ and ≤ were set here for values at or beyond the usual limits of such assays. Conditions: source organism: Dengue virus 3 Martinique/1243/1999.
Where [13] appears, read: source organism: Brucella melitensis.
[14] abbreviates: source organism: Brucella abortus.
Setting [15] is: source organism: Mycobacterium tuberculosis str. Haarlem.
The mark [16] stands for this setting: source organism: Mycobacterium tuberculosis.
Where [17] appears, read: source organism: Orthohantavirus hantanense.
[18] abbreviates: source organism: Dengue virus 2 Jamaica/1409/1983.
Where [19] appears, read: source organism: Dengue virus 1 Brazil/97-11/1997.
Setting [20] is: source organism: Dengue virus 3 Martinique/1243/1999.
The mark [21] stands for this setting: source organism: Yersinia pestis.
[22] abbreviates: source organism: Dengue virus 1 Singapore/S275/1990.
The mark [23] stands for this setting: source organism: Dengue virus 4 Philippines/H241/1956.
Where [24] appears, read: source organism: Mammarenavirus machupoense.
[25] abbreviates: source organism: Orthohantavirus andesense.
Setting [26] is: source organism: Mammarenavirus juninense.

This is an account of results in the Immune Epitope Database (IEDB).

As a reminder, the Kd is the concentration at which binding is half-saturated.

With GRDHVRVTL, the Kd with HLA-B*27:05 (setting [13]) is 0.315 µM; with HLA-B*44:02 (setting [14]), at least 20 µM; in the test with HLA-A*69:01 (setting [14]), at least 20 µM; with HLA-A*03:01 (setting [14]), at least 20 µM; with HLA-B*15:01 (setting [14]), at least 20 µM; with HLA-A*02:01 (setting [14]) it was at least 20 µM. Besides, the Kd in the test with HLA-B*39:01 (source organism: Brucella suis 1330) was 0.053 µM; with HLA-B*58:01 [1] (setting [14]) it was at least 20 µM; with HLA-A*01:01 [2] (setting [14]), at least 20 µM; in the test with HLA-A*26:01 [3], at least 20 µM; in the test with HLA-A*11:01 [4] (setting [14]) it was at least 20 µM; with HLA-A*31:01 (setting [14]) it was at least 20 µM. Moreover, the values for the Kd with HLA-B*07:02 (setting [14]), with HLA-B*08:01 (setting [13]) and with HLA-B*40:01 (setting [13]) were at least 20 µM, 2.56 µM and at least 5 µM, respectively.

For QTYMYTGQY, the Kd with HLA-A*29:02 (setting [15]) turned out to be 0.017 µM; in the test with HLA-A*01:01 [2] (setting [16]), 0.512 µM.

Consider AVRTDGSNI, for which the Kd with HLA-B*51:01 [5] (setting [17]) is at least 20 µM; with HLA-B*07:02 (setting [17]), 0.261 µM.

In the case of AASIILEFFL, the results for the Kd with HLA-B*58:01 [6] (setting [18]) and with HLA-B*57:01 [7] (setting [18]) were 0.366 µM and 2.27 µM, respectively.

In the case of SAHSADGHY, the Kd with HLA-A*29:02 (setting [15]) is 0.02 µM; in the test with HLA-A*01:01 [2] (setting [16]), at least 20 µM.

For the sequence VSSVNMVSRL, the values for the Kd with HLA-A*01:01 [8] and in the test with HLA-B*57:01 [7] (source organism: Dengue virus 3 Sri Lanka/1266/2000) were 10.7 µM and 1.03 µM, respectively.

Regarding RVWIEENPW, the values for the Kd with HLA-A*32:01 and with HLA-B*57:01 [7] (setting [19]) were 0.058 µM and 0.0027 µM, respectively.

With IGIGVLLTW, the Kd turned out to be 1.14 µM in the test with HLA-B*53:01 (setting [20]), 0.0116 µM with HLA-B*58:01 [6] (setting [20]) and 0.192 µM with HLA-B*57:01 [7] (setting [20]).

Regarding WANDFNHHY, the Kd in the test with HLA-B*15:01 (source organism: Yersinia pestis CA88-4125) was 0.029 µM; in the test with HLA-B*51:01 [5] (setting [21]), at least 20 µM; with HLA-B*07:02 (setting [21]) it was at least 20 µM.

As for GASHNILVEV, the Kd with HLA-B*58:01 [6] (setting [22]) was 9.64 µM; in the test with HLA-B*57:01 [7] (setting [22]), 0.785 µM.

As for IASLVMLLVH, the results for the dissociation constant Kd in the test with HLA-B*58:01 [6] (setting [23]) and in the test with HLA-B*57:01 [7] (setting [23]) were 1.73 µM and 0.435 µM, respectively.

As for FHEFLSSKL, the Kd with HLA-B*46:01 (setting [24]), with HLA-B*27:05 (setting [24]), with HLA-B*48:01 (setting [24]), with HLA-B*44:02 (setting [24]), in the test with HLA-A*03:01 (setting [24]) and with HLA-B*15:01 (setting [24]) was at least 20 µM in each case. Moreover, the Kd was at least 20 µM with HLA-A*02:01 (setting [24]); 0.0731 µM with HLA-B*39:01 (setting [24]); at least 20 µM with HLA-B*58:01 [1] (setting [24]); at least 20 µM with HLA-A*01:01 [2] (setting [24]); at least 20 µM in the test with HLA-A*11:01 [4] (setting [24]); at least 20 µM with HLA-B*57:01 [9] (setting [24]). Further, the Kd with HLA-A*31:01 (setting [24]) and with HLA-B*07:02 (setting [24]) was at least 20 µM throughout.

Take QASTTEAILP: the values for the dissociation constant (Kd) with HLA-B*58:01 [6] (setting [20]) and with HLA-B*57:01 [7] (setting [20]) were 1.52 µM and 1.96 µM, respectively.

AYDHGNVIL: the Kd in the test with HLA-B*46:01 (setting [25]), in the test with HLA-B*27:05 (setting [25]), in the test with HLA-B*48:01 (setting [25]), with HLA-A*68:02, with HLA-B*44:02 (setting [25]) and with HLA-A*29:02 (setting [25]) was at least 20 µM in each case. For the same sequence, the Kd with HLA-A*69:01 (setting [25]) was at least 20 µM; with HLA-A*02:12 it was at least 20 µM; in the test with HLA-A*03:01 (setting [25]) it was at least 20 µM; in the test with HLA-B*15:01 (setting [25]) it was at least 20 µM; with HLA-A*02:01 (setting [25]), at least 20 µM; with HLA-B*39:01 (setting [25]), 0.0657 µM. The dissociation constant (Kd) with HLA-B*58:01 [1] (setting [25]), in the test with HLA-B*18:01 (setting [25]), in the test with HLA-A*01:01 [2] (setting [25]), with HLA-A*11:01 [4] (setting [25]), in the test with HLA-B*57:01 [9] (setting [25]) and with HLA-A*31:01 (setting [25]) was at least 20 µM each time. Besides, the dissociation constant (Kd) with HLA-B*07:02 (setting [25]), with HLA-B*40:01 (setting [25]), with HLA-B*27:03, with HLA-A*26:01 [10], in the test with HLA-B*15:17 and with HLA-B*51:01 [11] was at least 20 µM in each case.

Turning to ASSMINGVVK, the Kd was 1.3 µM with HLA-B*58:01 [6] (setting [20]), 0.0392 µM with HLA-A*11:01 [12] and 15.7 µM in the test with HLA-B*57:01 [7] (setting [20]).

Consider QVKRREGMF, for which the Kd in the test with HLA-B*46:01 (setting [26]), with HLA-B*27:05 (setting [26]), with HLA-B*48:01 (setting [26]), with HLA-B*44:02 (setting [26]), with HLA-A*29:02 (setting [26]) and with HLA-A*69:01 (setting [26]) was at least 20 µM throughout. The Kd in the test with HLA-A*03:01 (setting [26]), with HLA-A*02:01 (setting [26]), with HLA-B*58:01 [1] (setting [26]), with HLA-B*18:01 (setting [26]), in the test with HLA-A*01:01 [2] (setting [26]) and with HLA-A*11:01 [4] (setting [26]) was at least 20 µM in each case. For the same sequence, the Kd is at least 20 µM in the test with HLA-B*57:01 [9] (setting [26]); at least 20 µM with HLA-A*31:01 (setting [26]); at least 20 µM with HLA-B*07:02 (setting [26]); 1.55 µM in the test with HLA-B*08:01 (setting [26]); at least 20 µM with HLA-B*40:01 (setting [26]).

With TTLSLDYAW, the Kd in the test with HLA-B*53:01 (setting [19]) came to 0.0709 µM; with HLA-B*58:01 [6] (setting [19]), 0.00166 µM; with HLA-A*32:01 it was 0.114 µM; in the test with HLA-B*57:01 [7] (setting [19]), 0.000617 µM.
